# According to the DeepSol protein solubility set:
# Test: soluble on expression in E. coli; label from the status in PepcDB or PDB records
row,Sequence,soluble on expression in E. coli
1,MTLDYHQPTTTNTTLPDDIHMKDPEEEEFEEYEDELLEEEEEFDEELEELENSDSASSLVSAGSPHGSSSSNGSHGSSPPLQVQSPSQGSGSSGSPTGQPEKRHICTVCGKGFSYFSILESHKRSHTGEKPYNCHFCQKTFAQKATLQVHERTHTGERPYKCRYCEKTFAQYGTKTVHEKSAHLGIRNYKCPKCDKLLSSPSALYTHKKTHGDKTFRCDFCPKTFALKNYLKLHVKQVHEQNERKHVCVYCNKGFAYAGSLQVHVRTHTGERPYVCKFCPKAFASQGNLQSHERTHTGERPYSCQFCQRTFIQKSQLTAHESTHLTQKHSVNPDSTTADILPVAGSVTDHQMVGNYECTFCNKKYPYASSLYIHMRKHTEKSAYSCDGCGKPYSQKISLNIHQDQCEAFKNRLKTTDSQFSHNCDGCGKSFVQRIALQIHVDSCEPHKNLARLKLSQQQNQNQNSDSESDTEMKICPLPNPPLTLAPTHQQIPPPVNIYAQQPPPNPLGSILGNTSLTPQTLNFGLPSLSSASFSSLNAHAPFTPVELPNSADFGPLTASKPHAVPFHPSEMCLSAFRKVPESSSISGLGSLSTSILSTQLLLQLQHTPDFNYLLNQNLLSSLAGLSGLSATLGPQLQATTPTSANQQPFLMAAPSAVQPLV,not soluble
2,MTLEKKEYGAPGFWPGSMIGRVHAFETPAPLTRAQLDRLRDEFFETRTEGHLEIWTAIRAASHAQEAGDDELAYAIITAVGILPAEVGPAGEGLGERIPFAEQPLDRLLGMICGCCFPAFTRYRTLERVYDQRGFLYETPKECIATPSNVLPDESTEASAR,not soluble
3,MTLHKERRIGRLSVLLLLNEAEESTQVEELERDGWKVCLGKVGSMDAHKVIAAIETASKKSGVIQSEGYRESHALYHATMEALHGVTRGEMLLGSLLRTVGLRFAVLRGNPYESEAEGDWIAVSLYGTIGAPIKGLEHETFGVGINHI,soluble
4,MTLSIAHLGPPGTYAEQAAVLYVNWLTKSTGDEATLSPYPTISQSLHAVADGQAHLAVVPVENSIEGSVTTTLDALWQLDSLRIQLALVLPIVHTLISCASGLDKIETVYSHPQALAQCQGWLERFLPTVQIVPSNSTTEALQRLEQETTTAAIASSRAAQLYNLPILATGINDYPENCTRFWVVSQGEADAGYQTSKVPTSHTSLAFSMPANTPGALVKPLQIFAQLGINLSRIESRPTKRSLGEYLFFMDLEADVKESQMQSALAELTIHTEILKILGAYNVLPIGAFT,not soluble
5,MTLTKGSFTYSSGEEYRGEWKEGRRHGFGQLVFADGGTYLGHFENGLFNGFGVLTFSDGSRYEGEFSQGKFNGVGVFIRYDNMTFEGEFKNGRVDGFGLLTFPDGSHGIPRNEGLFENNKLLRREKCSAVVQRAQSASKSARNLTA,soluble
6,MTLTMGFIGFGKSANRYHLPYLKTRNNIKVKTIFVRQINEELAAPYEERGVYFTTDLDELLNDKEIQVVTICTPAHTHYELAKKVILAGKSVIVEKPFCDTVEHAKELLALGREKGVVVMPYQNRRFDGDFLAVKQVVEQGFLGDIIEIESHIDYFRPGSITHEAPKEEGSFYSLGIHTMDRMISLFGRPNTVTYDIRNNEVEGAVDNYFDVGLHYGNQLKIKLKTNHIVAKDYPRFIVHGTNGSFIKYGEDQQENDLKAGIMPESAGFGEDSPMYYGIAKYRNANGDWIEKQIKTPLGDYGRFYDAAYDTIVNGAPKLVKDEEAVTNIEILENGFAAPSPSVYKLEALHLNELEHHHHHH,soluble
7,MTLTQIHALLAVLEYGGFTEASKRLYMTQSAVSQAISALEEELGVDILIRERRKEIELTAAGSRIVRHLRAIQRDVNAVKEIAEQEKKNPARTLRIGCFPSACACILPGVIRYFESHHPNVKIIPYEENSTAIIDSLQDGSIDAGFVPFPVNGMYCVPIYRDKFTVVVPENHPLAANSTVTVEELMDEPLIVSKGRYELSIMALFKEKGIEPIFKYEFNHPDTALNFIRQGLGIALLPELTLKATTGKLCSVALEPTFYRQISLLAKEPPVEGSPLFLLQKCMETLTDEGLL,not soluble
8,MTLVSIVAPNLIEQGKVMEMLQGGRDNAIYRTGDRVSRPASSWTMTVHQLLNHLHSNGFTQCPKVIGIEGGKEWLSFVEGDTFNYPLQGSIASVTALLSAAKMLRRMHDASEDFLISHQSEVCHWMLPDRVPQEVICHGDFMPYNVALNGETVVGVFDFDTAHPAPRLWDVAFSIYGWAPFKTDENDRMGNLEQQIQRAKLFCDAYGCSKLERENLVDVMTLRLTALVDYMRLMASSRDERFQANLEEGHHIAYLQDIDYLRQHHQAITLGMLKER,not soluble
9,MTLYRQLLAREKENNPIRVGVIGAGQMGFGMISQIAAIPGMSVVGISDIHVDAAKKAADAYNATATKKEKILLSNDFKEIIHSDLVEVIVDATGVPEVGAKISLETLLAKKQLVLLNVEIDITIGPLMKKLYDSAGLVYTGSDGDEPAAITELYEFSKSMGMEVLVAGKGKNNKLKISANPDSCQVEADGKNMASHMLAAFQDGTKTMAEMNLLSNAIGYVPDVVGMHGISGDVDSVIKDLDLKEQGGILNQFGVVEYVDGLAPGVFVIVKGQNEGVSHELSYLMKKGERDHHILYRPYHLASLETPLTIAKAVLNHDHAIVPMGAPVSETVAVAKKDIAAGERLDGIGGFCVRGVLETHVDMAAEGHIPIGLISGEVVARRNIKAGTFITDEDVSLDESTTVWKLRKLQDETFSN,not soluble
10,MTMDLRTGLAALALAAGLALPAAPALAEMSEITIARQPSIGHLPLMIMQERRLIETMAEAEGLGEVKVNYATFAGGSNMNDALLSNTIQFAAGGVPPLILLWSKTAGTSNEVKGVAAMNSMPLLMNVNREDIRSIEDFKPGDKIALPSVKVSVQAMVLQMAAAKIWGDENYGKLDPLTVSMSHPDGLAALLARQEVTAHFTASPAQDMALREPGVHTVLNSFDVMGGPVTFNVVWTTKAFHDDNPKLFDIFRRALAQAVEVVNEDPAEAVQVYLRQAGNATDPELLASILADPQVDYTVEPSGIDKYLDFMRRIGTVKDNGQPWEAMFFE,not soluble
11,MTNHEQVLTDYLAAFIEELVQAGVKEAIISPGSRSTPLALMMAEHPTLKIYVDVDERSAGFFALGLAKASKRPVVLLCTSGTAAANYFPAVVEANLSQIPLIVLTADRPHELRNVGAPQAMDQLHLYGSHVKDFTDMALPENSDEMLRYAKWHSSRAVDIAMKTPRGPVHLNFPLREPLVPILEPSPFTATGKKHHHVH,not soluble
12,MTNKLTSLTIAFVGALSSMGAQAHGWVEYPSARQNTCYLDGGFWDNTIPNQACQAAYDESGAFPFVQRNEVAANVPNYQDMAHVQAIVRDGHLCSAGDAAKSGLNLGSLHWQKTAIALDANNQIELIFNATAPHNPSYWQFYLSNENYDPTVPLTWGDLVLIDTAGNVPVGEDKKYRIKITLPADRSDSAVLYTRWQREDAAGEGFYNCSDISFNGSGTTPPKPTDPVEPPQYSDLGYYINQGFGPVESGDTVRFRTFDSTGAETTDISLAITANNTSTWSAELAGQFNQLKNKEWFIGIWHQEMNHYMYDSNNIYANKVFAPTANVSYQLSLIKADITPPVEPPVEPSNPWDKTATYNAGDIVDHNGKAWVAQWWTKGEEPGTTGEWGVWR,not soluble
13,MTPFSDAAKNNTVKTDGDSVSGRDLPITKISEDRFERSAYSAQLANIICDVAPWGASTVFSLTGQWGSGKTSLVNLIRSEESLSNEKWTIVDFNPWVASDPQSLIEEFYRVIVGTVPDDKTGQKIKTVLQKTFSTIGSIAGGVGGFGVLEALALSKGVDAANAVYKTWKQEQDSWPTLYTRAANHFKDLNKRILIVVDDIDRLHTDELALLMKVIRLLGRFPQVNYLLVYEEESLLTTLARSTAVGGSEDDALRFMEKIVQYPFDVPPLTSFQIEKELSALFDKLFQGVSLSGDPEDFALVKSRMFDVWEKTLVTPRLLHRFAALLTNWTRIYGSGEVNGVDLTILATIRIVFPSVYKRLSRAKEVLLQGLEHHHHHH,not soluble
14,MTPLQQAQLSPQEEAVFDGDAISGSGLRFSELTRPVNLLVMGMSVLPPDVQNPPTETQNLRYLPQVNSFDGLADVMLMVKFDPETKKIAMLSIPRDTRTRIEGHGVRKINAANVEGGPALTATTVSNLLGGVGIDRYIRINVLGVGKLIDALGGVTVYVPKDMKYQDHSQHLYINLKAGKQHLNGDQVLQLLRFRHDELGDIGRIQRQQMVMRALMDQALNPVTVAQLPKILNVVKDNIDTNLTVEELVALVGFGVRTNRTNMQMLMLPGRFSEPNEYNASYWIPSKNGIAKLMAQHFGLESLSENPVNDPTAVRVAIQDSTGSDRSQLRPLINALEKAGYRNVYVANAWTEPLEVTNIIAQQGDGNSAESIRNALGFGEVRVESTGSLNSDISIQVGKDWLQQKSLLEDSIKFLEHHHHHH,soluble
15,MTPMKTYDLIVIGTGPGGYHAAIRAAQLGLKVLAVEAGEVGGVCLNVGCIPTKALLHAAETLHHLKVAEGFGLKAKPELDLKKLGGWRDQVVKKLTGGVGTLLKGNGVELLRGFARLVGPKEVEVGGERYGAKSLILATGSEPLELKGFPFGEDVWDSTRALKVEEGLPKRLLVIGGGAVGLELGQVYRRLGAEVTLIEYMPEILPQGDPETAALLRRALEKEGIRVRTKTKAVGYEKKKDGLHVRLEPAEGGEGEEVVVDKVLVAVGRKPRTEGLGLEKAGVKVDERGFIRVNARMETSVPGVYAIGDAARPPLLAHKAMREGLIAAENAAGKDSAFDYQVPSVVYTSPEWAGVGLTEEEAKRAGYKVKVGKFPLAASGRALTLGGAEGMVKVVGDEETDLLLGVFIVGPQAGELIAEAALALEMGATLTDLALTVHPHPTLSESLMEAAEAFHKQAIHILNR,soluble
16,MTPNRRSTDSYNMLGASFDFDPDFSLLSNKTHKNKNPKPPVKLLPYRHGSNTTSSDSDSYIFNSGSGSSDAETPAPVAPIFISLEDVLLNGQLIDFAIDPSGVKFLEANYPLDSEDQIRKAVFEKFTESTTLFVGLCHSRNGNFIVQKLVELATPAEQRELLRQMIDGGLLAMCKDKFACRVVQLALQKFDHSNVFQLIQELSTFDLAAMCTDQISIHVIQRVVKQLPVDMWTFFVHFLSSGDSLMAVCQDKYGCRLVQQVIDRLAENPKLPCFKFRIQLLHSLMTCIVRNCYRLSSNEFANYVIQYVIKSSGIMEMYRDTIIDKCLLRNLLSMSQDKYASHVIEGAFLFAPPALLHEMMEEIFSGYVKDVESNRDALDILLFHQYGNYVVQQMISICTAALIGKEERELPPAILLLYSGWYEKMKQRVLQHASRLERFSSGKKIIDSVMRHGVPTAAAVNAQAAPSLMELTAQFDAMFPSFLAR,not soluble
17,MTPYMANTKWVDGSVRSDFPQEKMARLYNLNYTIASQVNPHVVPFMQSDASRYRKDILSWPQRILRRQGKVISLGIMDFTRERLGNVPPVRRLLDHGYGIVGQRYYGDVNIIAPFNLRQYAYMLQNPRPHLFKLLQQQGERATLEHHHHHH,not soluble
18,MTQEIDIGKYHQLALQKQKEHRKFLATLKKKAPKNLDKIVQEVHTEVFREIDCTKCANCCKILGPLFTESDISRIAKHFRMRLPVFEDMYLRVDEDNDKVFKSMPCPFLGEDNLCFIYDVRPKACREFPHTDRKKIYQINHLTIQNTLICPAVYLFVEKLQERLALEHHHHHH,soluble
19,MTQGKGTREGGVLADVSALGPGGHAVVVGGGLAGVTTALALADAGVRVTLLEGRPRLGGLAFSFQRGDLTVDNGQHVYLRCCTAYRWFLDRIGGAALAPVQERLDVPVVDLARTEGNRLGRLRRDALPVPLHLGRSLATYPHLSLAERASVGRAALALKGLDLADPSLDTQDFGSWLTAHGQSARAVEALWDLVGVATLNAVAGDASLGLAAMVFKTGLLSDPGAADIGWARVPLGELHDRLARKALDSAGVRTEVRTRVTSVSVNENGGWSVQVPGETLEADAVVLAVPQREAHDLLPDGALDAPENLLRIGTAPILNIHVIYDRKVLGTPFLTALGTPVQWVFDRTEASGLKEGQYLALSQSTAQNDIDEPVAVLRERYLPELERLLPRTRGAEVKDFFVTRERTATFAPAPGVGRLRPGARTKAPGLYLAGAWTATGWPATMESAVRSGVGAAAAALGALGRSRGLLPDFFEEAALEHHHHHH,not soluble
